Earlier results as cited in paper PMC10287730.

Target: TLR4 (Homo sapiens) (UniProt O00206)
Sequence (O00206 24-839): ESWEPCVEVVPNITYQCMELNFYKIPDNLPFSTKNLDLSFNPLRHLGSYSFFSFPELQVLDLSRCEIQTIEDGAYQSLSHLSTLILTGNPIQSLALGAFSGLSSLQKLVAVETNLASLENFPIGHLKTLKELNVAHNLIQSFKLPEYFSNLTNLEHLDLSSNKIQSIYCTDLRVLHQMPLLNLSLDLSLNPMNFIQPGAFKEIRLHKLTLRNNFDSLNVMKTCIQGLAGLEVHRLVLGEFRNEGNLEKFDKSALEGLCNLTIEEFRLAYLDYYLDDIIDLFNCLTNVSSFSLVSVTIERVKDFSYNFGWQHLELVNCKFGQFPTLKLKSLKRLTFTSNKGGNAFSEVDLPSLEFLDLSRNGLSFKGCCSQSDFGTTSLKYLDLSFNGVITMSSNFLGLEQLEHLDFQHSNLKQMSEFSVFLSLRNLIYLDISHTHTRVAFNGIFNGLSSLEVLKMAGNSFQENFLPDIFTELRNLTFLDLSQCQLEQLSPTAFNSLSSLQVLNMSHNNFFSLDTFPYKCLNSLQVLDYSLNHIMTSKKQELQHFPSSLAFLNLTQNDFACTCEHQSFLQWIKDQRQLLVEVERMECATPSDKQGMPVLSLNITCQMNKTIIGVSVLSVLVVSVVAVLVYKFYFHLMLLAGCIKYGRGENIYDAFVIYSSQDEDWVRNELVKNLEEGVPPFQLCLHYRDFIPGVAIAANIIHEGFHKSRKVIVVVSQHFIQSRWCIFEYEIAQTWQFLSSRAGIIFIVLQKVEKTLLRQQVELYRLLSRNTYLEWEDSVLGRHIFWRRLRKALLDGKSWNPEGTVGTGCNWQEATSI

Sequence of Galectin-3 (P17931 2-250): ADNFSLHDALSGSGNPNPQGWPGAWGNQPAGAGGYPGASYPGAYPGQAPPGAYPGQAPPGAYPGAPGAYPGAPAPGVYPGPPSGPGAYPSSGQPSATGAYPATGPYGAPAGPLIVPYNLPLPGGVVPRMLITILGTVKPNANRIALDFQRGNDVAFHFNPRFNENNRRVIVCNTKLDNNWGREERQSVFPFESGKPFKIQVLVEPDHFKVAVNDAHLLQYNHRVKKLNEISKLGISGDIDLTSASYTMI

Kd: 1000 nM
Substance: Galectin-3 (from UniProt P17931)
